US20250326792A1, “A FORMULATION FOR TREATMENT OF PIGMENTARY DISORDERS” (priority 2022, published 2025)
PHPP = 3-Phenylpyrazolo[3,4-d]pyrimidine (N-terminal cap)

What was measured:
[1] = Stability of IS103 API, accelerated (Condition 1, 5±3° C.); assay type: physicochemical
Procedure: The purpose of stability testing is to provide evidence on how the quality of a drug substance or drug product varies with time under the influence of a variety of environmental factors such as temperature, humidity, etc. and to establish a re-test period for the drug substance or a shelf life for the drug product and recommended storage conditions. The study was conducted according to the WHO and schedule-Y guidelines.
The IS103 API is a lyophilized white fluffy powder, and it was filled at sterile condition in glass injection vial which has airlock-rubber capping. This container closure system is same as or simulates the packaging proposed for storage and distribution.
The following test attributes have been selected according to the above said guidelines: • appearance; odour; colour; colour of solution (when IS103 API is soluble in solvent); clarity of solution; degradation and assessment of container closure system.
The studies were conducted under appropriate storage conditions (with appropriate tolerances) that test IS103 API thermal stability and its sensitivity to moisture. The IS103 API is intended for storage for 36 months. Accordingly, long term stability studies were done for 36 months. The details of the storage conditions have been furnished hereunder.

NHEM cells [2] = experiment: Cell viability (XTT assay) in NHEM cells; assay type: cell-based, Human; conditions: 1000 μg/ml for about 48 hours
Procedure: Culture and maintenance of cell lines: B16F10 cells were cultured in RPMI containing 10% fetal bovine serum, 100 units per millilitre (U/mL) penicillin, 0.1 mg/mL streptomycin, and 0.25 microgram per millilitre (μg/mL) amphotericin B at 37 degrees Celsius in a humidified 95% air/5% CO2 incubator. Drug treatment was done 24 hours after seeding. Cells were harvested 48 hours later and melanin content and tyrosinase activity determined in triplicate. […] […]
B16F10 and NHEM cells were sub-cultured into 96-well culture plates at a density of 1×10^4 cells/well in 100 μL medium and after about 24 hours of incubation, the medium was discarded and replaced with 100 μL of a suitable medium (RPMI for B16F10 and DMEM for NHEM with 1% FBS) for starvation and then treated in the presence or absence of various concentrations of test compound and positive controls (IBMX and α-MSH). […] At the end of the incubation, about 50 μL of XTT test solution prepared by mixing about 5 mL of XTT-labeling reagent and about 100 μL of electron coupling reagent is added to each well and after about 4 hours of incubation at 37° C. and a about 5% CO2 incubator, the absorbance was measured on an ELISA reader at a test wavelength of 490 nm.

NHEM cells [3] = experiment: Melanin content assay in NHEM cells; assay type: cell-based, Human; conditions: for % increase in melanin content compared to control / Fold change in melanin content: NHEM CELLS
Procedure: Culture and maintenance of cell lines: B16F10 cells were cultured in RPMI containing 10% fetal bovine serum, 100 units per millilitre (U/mL) penicillin, 0.1 mg/mL streptomycin, and 0.25 microgram per millilitre (μg/mL) amphotericin B at 37 degrees Celsius in a humidified 95% air/5% CO2 incubator. Drug treatment was done 24 hours after seeding. Cells were harvested 48 hours later and melanin content and tyrosinase activity determined in triplicate. NHEM cells were cultured in DMEM containing 10% fetal bovine serum, 100 units per milliliter (U/mL) penicillin, 0.1 mg/mL streptomycin, and 0.25 microgram per millilitre (μg/mL) amphotericin B at 37 degrees Celsius in a humidified 95% air/5% CO2 incubator. Drug treatment was done 24 hours after seeding. Cells were harvested 48 hours later and melanin content and tyrosinase activity determined in triplicate.
IS103 was dissolved in water for injection or DMSO to prepare stock solution of about 50 mg/ml. The stock solution was used for preparation of subsequent dilutions in solvent to achieve working dilutions for treatment ranging 0.1 μg/ml to 1000 μg/ml.
Cells were seeded in a 6-well plate (2×10^4 cells/well) and incubated overnight to allow the cells to adhere. After treating with various test samples for 4 or 5 days, cells were washed with phosphate-buffered saline (PBS), trypsinized, counted, and then lysed in 1 N NaOH at 100° C. for about 1 hour. The melanin content in each sample was calculated by comparison of absorbance at 400 nm of unknown samples with a standard curve obtained using synthetic melanin. IS103 enhances melanin synthesis in a dose dependent manner without significant toxicity. B16F10 and NHEM cells were treated with different concentrations of IS103 ranging from 0.1 to 1000 μg/ml and analysed melanin contents in cells. It was observed that IS103 was able to enhance pigmentation of B16F10 and NHEM cells in a dose-dependent manner (Table 18 and FIGS. 4 and 5). […] To assess the toxicity of the IS103 peptide, cell viability was analyzed by MTT assay.

Substance: PHPP-Tyr-Arg-Ser-Arg-Lys-Tyr-Ser-Ser-Trp-Tyr-NH2 ({PHPP}-YRSRKYSSWY-NH2) [IS103]
- API calculated on the anhydrous basis ([1]; 5±3° C., 1 M): 99.68%
- Appearance white to off white amorphous powder ([1]; 5±3° C., 1 M): White
- Related substances (By HPLC) Any Max Impurity ([1]; 5±3° C., 1 M): 0.35%
- Related substances (By HPLC) Total Impurity ([1]; 5±3° C., 1 M): 2.23%
- Solubility Sparingly soluble in water ([1]; 5±3° C., 1 M): Complies
- Water Content (By Karl Fischer-Titrator) ([1]; 5±3° C., 1 M): 4.27% w/w
- Internal change in attributes: Appearance ([1]; 5±3° C., 1st month): No change
- Internal change in attributes: Clarity of solution ([1]; 5±3° C., 1st month): No change
- Internal change in attributes: Color ([1]; 5±3° C., 1st month): No change
- Internal change in attributes: Color of solution ([1]; 5±3° C., 1st month): No change
- Internal change in attributes: Odor ([1]; 5±3° C., 1st month): No change
- Internal change in attributes: Appearance ([1]; 5±3° C., 2nd month): No change
- Internal change in attributes: Clarity of solution ([1]; 5±3° C., 2nd month): No change
- Internal change in attributes: Color ([1]; 5±3° C., 2nd month): No change
- Internal change in attributes: Color of solution ([1]; 5±3° C., 2nd month): No change
- Internal change in attributes: Odor ([1]; 5±3° C., 2nd month): No change
- API calculated on the anhydrous basis ([1]; 5±3° C., 3 M): 99.14%
- Appearance white to off white amorphous powder ([1]; 5±3° C., 3 M): White
- Related substances (By HPLC) Any Max Impurity ([1]; 5±3° C., 3 M): 0.40%
- Related substances (By HPLC) Total Impurity ([1]; 5±3° C., 3 M): 2.30%
- Solubility Sparingly soluble in water ([1]; 5±3° C., 3 M): Complies
- Water Content (By Karl Fischer-Titrator) ([1]; 5±3° C., 3 M): 4.29% w/w
- Internal change in attributes: Appearance ([1]; 5±3° C., 3rd month): No change
- Internal change in attributes: Clarity of solution ([1]; 5±3° C., 3rd month): No change
- Internal change in attributes: Color ([1]; 5±3° C., 3rd month): No change
- Internal change in attributes: Color of solution ([1]; 5±3° C., 3rd month): No change
- Internal change in attributes: Odor ([1]; 5±3° C., 3rd month): No change
- API calculated on the anhydrous basis ([1]; 5±3° C., 6 M): 99.00%
- Appearance white to off white amorphous powder ([1]; 5±3° C., 6 M): White
- Related substances (By HPLC) Any Max Impurity ([1]; 5±3° C., 6 M): 0.49%
- Related substances (By HPLC) Total Impurity ([1]; 5±3° C., 6 M): 2.44%
- Solubility Sparingly soluble in water ([1]; 5±3° C., 6 M): Complies
- Water Content (By Karl Fischer-Titrator) ([1]; 5±3° C., 6 M): 4.87% w/w
- Internal change in attributes: Appearance ([1]; 5±3° C., 6th month): No change
- Internal change in attributes: Clarity of solution ([1]; 5±3° C., 6th month): No change
- Internal change in attributes: Color ([1]; 5±3° C., 6th month): No change
- Internal change in attributes: Color of solution ([1]; 5±3° C., 6th month): No change
- Internal change in attributes: Odor ([1]; 5±3° C., 6th month): No change
- API calculated on the anhydrous basis ([1]; 5±3° C., Initial): 99.73%
- Appearance white to off white amorphous powder ([1]; 5±3° C., Initial): White
- Related substances (By HPLC) Any Max Impurity ([1]; 5±3° C., Initial): 0.39%
- Related substances (By HPLC) Total Impurity ([1]; 5±3° C., Initial): 2.09%
- Solubility Sparingly soluble in water ([1]; 5±3° C., Initial): Complies
- Water Content (By Karl Fischer-Titrator) ([1]; 5±3° C., Initial): 4.18% w/w
- found to be stable for ([1]; accelerated condition, 5±3° C.): 6 months
- stable for ([1]; refrigerator (5±3° C.) conditions): 36 months
- effect on cell viability (NHEM cells [2]): did not exert any significant effect on cell viability
- % increase in melanin content compared to control (NHEM cells [3]; 0.1 μg/mL): 0%
- Fold change in melanin content (NHEM cells [3]; 0.1 μg/mL): 1.0 ± 0.20
- % increase in melanin content compared to control (NHEM cells [3]; 1 μg/mL): 0%
- Fold change in melanin content (NHEM cells [3]; 1 μg/mL): 1.0 ± 0.20
- % increase in melanin content compared to control (NHEM cells [3]; 10 μg/mL): 0%
- Fold change in melanin content (NHEM cells [3]; 10 μg/mL): 1.0 ± 0.20
- % increase in melanin content compared to control (NHEM cells [3]; 50 μg/mL): 40%
- Fold change in melanin content (NHEM cells [3]; 50 μg/mL): 1.4 ± 0.20
- % increase in melanin content compared to control (NHEM cells [3]; 100 μg/mL): 130%
- Fold change in melanin content (NHEM cells [3]; 100 μg/mL): 2.3 ± 0.20
- % increase in melanin content compared to control (NHEM cells [3]; 250 μg/mL): 160%
- Fold change in melanin content (NHEM cells [3]; 250 μg/mL): 2.6 ± 0.20
- % increase in melanin content compared to control (NHEM cells [3]; 500 μg/mL): 180%
- Fold change in melanin content (NHEM cells [3]; 500 μg/mL): 2.8 ± 0.20
- % increase in melanin content compared to control (NHEM cells [3]; 1000 μg/mL): 165%
- Fold change in melanin content (NHEM cells [3]; 1000 μg/mL): 2.7 ± 0.20
- effect on melanin synthesis (FIG. 5) (NHEM cells [3]; NHEM cells, different concentrations, about 48 hours): enhanced melanin synthesis in a dose-dependent manner
